The values that follow come from CN117327176A (NANJING RONGJIEKANG BIOTECHNOLOGY CO LTD, dated 2024).

B1: 单域抗体 1B7 (VHH, E. coli crude extract) (VHH)
VHH: ESGGGSVQAGGSLRLSCTTSGYTYSSNCIGWFRQAPGKEREEIATISRVGEITFYADSVKGRFTISQDNTETTVFLQMNSLKPEDTAVYYCAASPPTYGGCPTRSRDYDKWGQGTQVTVSS
notes: Expressed from pMECS in E. coli and detected through an HA tag
B2: 单域抗体 23G12 (VHH, E. coli crude extract) (VHH)
VHH: ESGGGSVQAGGSLRLSCATSRFTYGSACMGWFRQSPGKEREQVAGIAMGVVTYYADSVKGRFTISQDNGKNTVDLQMDNLKPEDTAMYYCATGPAHYKCYSASGGRYNYWGQGTQVTVSS
notes: as for B1
B3: 单域抗体 2G5 (VHH, E. coli crude extract) (VHH)
VHH: ESGGGSVQAGGSLRLSCATSRFTYGSACMGWFRQSPGKEREQVAGIAMGVVTYYADSVKGRFTISQDNGKNTVDLQMDNLKPEDTAMYYCATGPAHYNCYSASGGRYNYWGQGTQVTVSS
notes: as for B1
B4: 单域抗体 21H6 (VHH, E. coli crude extract) (VHH)
VHH: ESGGGSVQAGGSLRLSCATSRWTYGTACMGWFRQSPGKEREQVAGIAMGVVTYYADSVEGRFTISQDNEKNTVDLQMDNLKPEDTAMYYCATGPAHYKCYSASGGRYNYWGQGTQVTVSS
notes: as for B1
B5: 单域抗体 27H4 (VHH, E. coli crude extract) (VHH)
VHH: ESGGGSVQAGGSLRLSCATSRFTYGSACMGWFRHAPGKEREQVAGIAMGVVTYYADSVKGRFTISQDNGKNTVDLQMDNLKPEDTAMYYCATGPAHYKCYSPSGGRYNYWGQGTQVTVSS
notes: as for B1
B6: 单域抗体 4B2 (VHH, E. coli crude extract) (VHH)
VHH: ESGGGSVQAGGSLRLSCATSRYTYGSACMGWFRQSPGKEREQVAGIAMGVVTYYADSVKGRFTISQDNGKNTVDLQMDNLKPEDTAMYYCAAGPAHYLCYSASGGRYTSWGQGTQVTVSS
notes: as for B1
B7: 单域抗体 1D1 (VHH, E. coli crude extract) (VHH)
VHH: ESGGGSVQVGGSLRLSCATSRFTYGSACMGWFRQSPGKEREQVAGIAMGVVTYYADSVKGRFTISQDNGKNTVDLQMDNLKPEDTAMYYCATGPAHYKCYSASGGRYSDWGQGTQVTVSS
notes: as for B1
B8: 单域抗体 1A6 (VHH, E. coli crude extract) (VHH)
VHH: ESGGGSVQAGGSLRLSCATSRYTYGSSCMAWFRQSPGKEREQVAGIAMGVVTYYADSVKGRFTISQDNGKNTVDLQMDNLKPEDTAMYYCAAGPPHYKCYSVSGGRYNYWGQGTQVTVSS
notes: as for B1
B9: 单域抗体 4F3 (VHH, E. coli crude extract) (VHH)
VHH: ESGGGSVQAGGSLRLSCATSRYTYGSSCMGWFRQSPGKEREQVAGIAMGVVTYYADSVKGRFTISQDNNKNTVDLQMDNLKPEDTAMYYCASGPPHYKCYSASGGRYNYWGQGTQVTVSS
notes: as for B1
B10: 单域抗体 214D11 (VHH, E. coli crude extract) (VHH)
VHH: ESGGGSVQAGGSLRLSCATSRFTYGSACMGWFRQSPGKEREQVAGIAMGVVTYYADSVKGRFTISQDNGKNTVDLQMDNLKPEDTAMYYCATGPAHYKCYSASGGRYDAWGQGTQVTVSS
notes: as for B1
B11: 单域抗体 1A7 (VHH, E. coli crude extract) (VHH)
VHH: ESGGGSVQAGGSLRLSCATPRYTYGTSCMGWFRQSPGYQREQVAGIAMGVVTYYADSVKGRFTISQDNGKNTVDLQMDNLKPEDTAMYYCAAGPAHYKCYSASGGRYNYWGQGTQVTVSS
notes: as for B1
B12: 单域抗体 2D10 (VHH, E. coli crude extract) (VHH)
VHH: ESGGGSVQAGGSLRLSCATSRFTYGSACMGWFRQSPGKEREQVAGIAMGVVTYYADSVKGRFTISQDNGKNTVDLQMDNLKPDDTAMYYCATGPAHYKCYSASGGRYNYWGQGTQVTVSS
notes: as for B1
B13: 单域抗体 1F9 (VHH, E. coli crude extract) (VHH)
VHH: ESGGGSVQAGGSLRLSCATSRYTYNCMGWFRQSPGKEREQVAGIAMGVVTYYADSVKGRFTISQDNGKNTVDLQMDNLKPEDTAMYYCAAGPAHYKCYSPSGGRYNYWGQGTQVTVSS
notes: as for B1
B14: 单域抗体 4A1 (VHH, E. coli crude extract) (VHH)
VHH: ESGGGSVQAGGSLRLSCATSRYTYNCMGWFRQSPGKEREQVAGIAMGVVTYYADSVKGRFTISQDNGKNTVDLQMDNLKPEDTAMYYCASGPPHYKCYSASGGRYNYWGQGTQVTVSS
notes: as for B1
B15: 单域抗体 1H5 (VHH, E. coli crude extract) (VHH)
VHH: ESGGGLVQPGGSLRLSCATSRYTYNCMGWFRQSPGKEREQVAGIAMGVVTYYADSVKGRFTISQDNGKNTVDLQMDNLKPEDTAMYYCAAGPAHYKCYSPSGGRYNYWGQGTQVTVSS
notes: as for B1
B16: 单域抗体 1F3 (VHH, E. coli crude extract) (VHH)
VHH: ESGGGSVQAGGSLRLSCATSTSRFTYGSACMGWFRQSPGKEREQVAGIAMGVVTYYADSVKGRFTISQDNGKNTVDLQMDNLKPEDTAMYYCAAGPAHYNCYSASGGRYNYWGQGTQVTVSS
notes: as for B1
B17: 单域抗体 212C7 (VHH, E. coli crude extract) (VHH)
VHH: ESGGGLVQPGGSLRLSCATSTSRFTYGSACMGWFRQSPGKEREQVAGIAMGVVTYYADSVKGRFTISQDNGKNTVDLQMDNLKPEDTAMYYCAAGPAHYNCYSASGGRYNYWGQGTQVTVSS
notes: as for B1
B18: 单域抗体 2H3 (VHH, E. coli crude extract) (VHH)
VHH: ESGGGSVQAGGSLRLSCATSTSRFTYGSACMGWFRQSPGKEREQVAGIAMGVVTYYADSVKGRFTISQDNGKNTVDLQMDNLKPEDTAMYYCAAGPAHYKCYSASGGRYNIWGQGTQVTVSS
notes: as for B1

The target in the assay is T1, 人源TSLP蛋白 (Thymic stromal lymphopoietin) (human, UniProt Q969D9 29-159).
T1 construct: also called 人源重组TSLP蛋白; TSLP重组蛋白
Kind of assay: ELISA of E. coli crude extract on coated TSLP, anti-HA HRP; positive if OD more than 5 times the control well. On the technique in general: ELISA stands for enzyme-linked immunosorbent assay.
Turning to B1, the binding result is reported as “binds”.

In the case of B2, the binding result was “binds”.

In the case of B3, the binding result is listed as “binds”.

In the case of B4, the binding result was “binds”.

Regarding B5, the binding result was “binds”.

For the molecule B6, the binding result was “binds”.

As to B7, the binding result is “binds”.

As to B8, the binding result was “binds”.

Take B9: the binding result is “binds”.

B10: the binding result is “binds”.

Turning to B11, the binding result is given as “binds”.

On to B12, for which the binding result was “binds”.

For the molecule B13, the binding result is “binds”.

In the case of B14, the binding result is given as “binds”.

B15: the binding result is “binds”.

B16: the binding result is on record as “binds”.

Consider B17, for which the binding result is listed as “binds”.

For the molecule B18, the binding result was “binds”.
